This note sets out measurements from paper PMC9425028.

To fix the notation:
B1: wild-type recombinant mouse MASP-3 fused with PA-tag (WT rmMASP-3-PA) [mouse] / mouse collectin kidney 1 (CL-K1) [mouse (endogenous in serum of C57BL/6J mice)] (parent)
chain 1: HTVELNEMFGQIQSPGYPDSYPSDSEVTWNITVPEGFRIKLYFMHFNLESSYLCEYDYVKVETEDQVLATFCGRETTDTEQTPGQEVVLSPGTFMSVTFRSDFSNEERFTGFDAHYMAVDVDECKEREDEELSCDHYCHNYIGGYYCSCRFGYILHTDNRTCRVECSGNLFTQRTGTITSPDYPNPYPKSSECSYTIDLEEGFMVSLQFEDIFDIEDHPEVPCPYDYIKIKAGSKVWGPFCGEKSPEPISTQTHSVQILFRSDNSGENRGWRLSYRAAGNECPKLQPPVYGKIEPSQAVYSFKDQVLVSCDTGYKVLKDNEVMDTFQIECLKDGAWSNKIPTCKIVDCGAPAGLKHGLVTFSTRNNLTTYKSEIRYSCQQPYYKMLHNTTGVYTCSAHGTWTNEVLKRSLPTCLPVCGQPSRALPNLVKRIIGGRNAELGLFPWQALIVVEDTSRVPNDKWFGSGALLSESWILTAAHVLRSQRRDNTVIPVSKEHVTVYLGLHDVRDKSGAVNSSAARVILHPDFNIQNYNHDIALVQLQKPVPLGAHVMPICLPRPEPEGPAPHMLGLVAGWGISNPNVTVDEIILSGTRTLSDVLQYVKLPVVSHAECKASYESRSGNYSVTENMFCAGYYEGGKDTCLGDSGGAFVIFDEMSQHWVAQGLVSWGGPEECGSKQVYGVYTKVSNYVDWLWEEMNSPRAVRDLQVER
chain 2: QQTTEDACSVQILVPGLKGDAGEKGDKGAPGRPGRVGPTGEKGDMGDKGQKGTVGRHGKIGPIGAKGEKGDSGDIGPPGPSGEPGIPCECSQLRKAIGEMDNQVTQLTTELKFIKNAVAGLRETESKIYLLVKEEKRYADAQLSCQARGGTLSMPKDEAANGLMASYLAQAGLARVFIGINDLEKEGAFVYSDRSPMQTFNKWRSGEPNNAYDEEDCVEMVASGGWNDVACHITMYFMCEFDKENL
B2: wild-type recombinant mouse MASP-3 fused with PA-tag (WT rmMASP-3-PA) [mouse] / mouse ficolin-A [mouse (endogenous in serum of C57BL/6J mice)] (parent)
chain 1: B1 chain 1
chain 2: SQALGQERGACPDVKVVGLGAQDKVVVIQSCPGFPGPPGPKGEPGSPAGRGERGFQGSPGKMGPAGSKGEPGTMGPPGVKGEKGDTGAAPSLGEKELGDTLCQRGPRSCKDLLTRGIFLTGWYTIHLPDCRPLTVLCDMDVDGGGWTVFQRRVDGSIDFFRDWDSYKRGFGNLGTEFWLGNDYLHLLTANGNQELRVDLQDFQGKGSYAKYSSFQVSEEQEKYKLTLGQFLEGTAGDSLTKHNNMSFTTHDQDNDANSMNCAALFHGAWWYHNCHQSNLNGRYLSGSHESYADGINWGTGQGHHYSYKVAEMKIRAS

In one assay the parent is B1. The assay is described as follows: immunoprecipitation with anti-PA tag antibody beads from mouse serum, Western blot band intensity. The conditions noted are these: with mouse collectin kidney 1 (CL-K1) [mouse (endogenous in serum of C57BL/6J mice)]; TBS containing 7 mM MgCl2 and 5 mM CaCl2 (TBS/Mg/Ca); parent: 1; read off a plot. (In general: A western blot detects proteins with antibodies after separation by electrophoresis.)
Turning to chain 1 H218A, the ratio to parent turned out to be 0.04. Take chain 1 E49A: the ratio to parent turned out to be 0.02. Turning to chain 1 Y225A, the ratio to parent was determined as 0.07. Regarding chain 1 D102A, the ratio to parent turned out to be 0.03.

In the next assay the parent is B2. The description is as above. To be noted: with mouse ficolin-A [mouse (endogenous in serum of C57BL/6J mice)]; TBS containing 7 mM MgCl2 and 5 mM CaCl2 (TBS/Mg/Ca); parent: 1; read off a plot.
Regarding chain 1 E49A, the ratio to parent turned out to be 0.09. Same read-out and setting: to chain 1 Y225A belongs 0.06. Regarding chain 1 H218A, the ratio to parent was found to be 0.04. On the same count and under the same terms, under chain 1 D102A stands 0.04.
